Tests used:
ESE-1 (ELF3) [1] = target: T1, ESE-1 (ELF3) (Homo sapiens, UniProt P78545 P78545:1-371); assay: cell_activity
T1 sequence: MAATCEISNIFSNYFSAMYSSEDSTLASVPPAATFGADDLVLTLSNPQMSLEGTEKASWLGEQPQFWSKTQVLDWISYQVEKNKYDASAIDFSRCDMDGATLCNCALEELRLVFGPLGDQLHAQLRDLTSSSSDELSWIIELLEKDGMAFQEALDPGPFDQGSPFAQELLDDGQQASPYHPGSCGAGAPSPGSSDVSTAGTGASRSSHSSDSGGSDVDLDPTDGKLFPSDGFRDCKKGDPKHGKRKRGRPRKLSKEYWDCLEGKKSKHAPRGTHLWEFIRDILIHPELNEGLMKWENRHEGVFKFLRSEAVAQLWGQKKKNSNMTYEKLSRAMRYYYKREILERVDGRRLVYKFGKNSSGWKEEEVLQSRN

ESE-1 (ELF3) [2] = target: T1, ESE-1 (ELF3); assay: EMSA; strong specific complex; data not shown; conditions: tags: pCI/ESE-1, TNT rabbit reticulocyte lysate; label: 32P
ESE-1 (ELF3) [3] = target: T1, ESE-1 (ELF3); assay: EMSA; conditions: tags: pCI/ESE-1, TNT rabbit reticulocyte lysate; label: 32P
Description: Having identified putative targets for ESE- 1 we were also interested to determine whether ESE- 1 could specifically bind to Ets sites within the NOS2 promoter. An Ets binding site was identified which is highly homologous to the Ets consensus binding site for ESE- 1 (Oettgen, P., et al., 1999, J Biol Chem 274:29439-52). […] As is shown in FIG. 6, ESE- 1 binds equally well to both Ets sites.
In vitro transcription-translation was performed in TNT rabbit reticulocyte lysate (Promega) using the pCI/ESE- 1 vector as described (Oettgen, P., et al. et al. 1997, Mol Cell Biol 17:4419-33). EMSAs and supershift assays were performed using 2 μl of in vitro translation product or 3 μl of whole cell extract and (³²P)-labeled double stranded oligonucleotide probes in the presence or absence of competitor oligonucleotides (1, 10 or 100 ng) or antibodies as described (Akbarali, Y., et al. 1996. J Biol Chem 271:26007-12). Whole cell extracts were made from U- 138 Mg cells after incubation with IL-1β for 0, 3, and 8 hours using as lysis buffer 1% Triton X- 100, 25 mM glycylglycine pH7.8, 15 mM MgSO₄, 4 mM EGTA, 1 mM dithiothreitol, phenylmethylsulfonyl fluoride, Aprotinin, and Pepstatin. All antibodies for super-shift assays (2 μl per assay) were obtained from Santa-Cruz Technologies (CA) (Oettgen, P., et al. 1996, Mol Cell Biol 16:5091-106).

COX-2 promoter -170/+103
activity (ESE-1 (ELF3) [1]; luciferase, RAW 264.7): > 10 fold

NOS2 promoter -234/+31
activity (ESE-1 (ELF3) [1]; luciferase transactivation, RAW cells, promoter length in Example 1M not stated): 12 fold

B1: COX-2 promoter Ets site 3 (dsDNA)
DNA 1: CGAAAAGGCGGAAAGAAACAGT
DNA 2: ACTGTTTCTTTCCGCCTTTTCG
binding result (ESE-1 (ELF3) [2]): binds

B2: COX-2 promoter Ets site 1 (dsDNA)
DNA 1: GCACGTCCAGGAACTCCTCAGC
DNA 2: GCTGAGGAGTTCCTGGACGTGC
binding result (ESE-1 (ELF3) [2]): binds

B3: murine PSP promoter Ets site (dsDNA)
DNA 1: TCGACGAACATCCAGGAAATAGGGCTC
DNA 2: TCGAGAGCCCTATTTCCTGGATGTTCG
binding result (ESE-1 (ELF3) [3]): binds

Reference: US20030229003, “Use of transcription factors for treating inflammation and other diseases” (published 2003)
